Target: GPVI-Fc dimer (UniProt Q9HCN6)
Assay: ELISA

B1: nanobody 2 (Nb2) (VHH)
VHH: QVQLQESGGGLVQPGGSLRLSCAAAGFTFDYYAIAWFRQAPGKEREGVSCISSSDGTTYYADSVKGRFTISKDNAKNTMYLQMNSLKPEDTAVYYCATSPLYSTNDRCISEDYDYWGQGTQVTVSS
B1: binds.
